± gives the uncertainty stated by the source.

B1: Tripartite motif-containing protein 49C, residues 87 to 133; numbered along this chain, P0CI26 (parent)
chain: SSEEQMCGTHRETKKIFCEVDRSLLCLLCSSSQEHRYHRHRPIEWAA
B2: Lysine-specific demethylase 5C, residues 319 to 373; numbered along this chain, P41229 (parent)
chain: AQFIESYVCRMCSRGDEDDKLLLCDGCDDNYHIFCLLPPLPEIPKGVWRCPKCVM

The variants in one data set derive from B1. Briefly: abundance fitness (aPCA) (normalised: wild type 0, dead -1); higher = more abundant; growth selection in yeast, the domain comes from the species named. The note with it: Homo sapiens.
As to YSEEQMCGTHRETKKIFCEVDRSLLCLLCSSSQEHRYHRHRPIEWAA [S1Y], the abundance fitness is -0.277 ± 0.22. On the same count and under the same terms, the same measure for ESEEQMCGTHRETKKIFCEVDRSLLCLLCSSSQEHRYHRHRPIEWAA [S1E]: -0.003 ± 0.21; for CSEEQMCGTHRETKKIFCEVDRSLLCLLCSSSQEHRYHRHRPIEWAA [S1C]: -0.79 ± 0.26; for ASEEQMCGTHRETKKIFCEVDRSLLCLLCSSSQEHRYHRHRPIEWAA [S1A]: -0.49 ± 0.19. Still for that read-out and setting: the same measure for GSEEQMCGTHRETKKIFCEVDRSLLCLLCSSSQEHRYHRHRPIEWAA [S1G]: -0.526 ± 0.41; for LSEEQMCGTHRETKKIFCEVDRSLLCLLCSSSQEHRYHRHRPIEWAA [S1L]: -0.156 ± 0.15.

For the variant FSEEQMCGTHRETKKIFCEVDRSLLCLLCSSSQEHRYHRHRPIEWAA [S1F], the abundance fitness was determined as 0.294 ± 0.23. On the same count and under the same terms, the same measure for VSEEQMCGTHRETKKIFCEVDRSLLCLLCSSSQEHRYHRHRPIEWAA [S1V]: -0.121 ± 0.22; for TSEEQMCGTHRETKKIFCEVDRSLLCLLCSSSQEHRYHRHRPIEWAA [S1T]: -0.496 ± 0.19; for SSEQQMCGTHRETKKIFCEVDRSLLCLLCSSSQEHRYHRHRPIEWAA [E4Q]: -0.726 ± 0.23. The same measure, in the same setting: with SSETQMCGTHRETKKIFCEVDRSLLCLLCSSSQEHRYHRHRPIEWAA [E4T] the figure was 0.02 ± 0.14; with SSEIQMCGTHRETKKIFCEVDRSLLCLLCSSSQEHRYHRHRPIEWAA [E4I], -0.142 ± 0.15.

In the case of SSECQMCGTHRETKKIFCEVDRSLLCLLCSSSQEHRYHRHRPIEWAA [E4C], the abundance fitness is -0.591 ± 0.21.

Take SSEPQMCGTHRETKKIFCEVDRSLLCLLCSSSQEHRYHRHRPIEWAA [E4P]: the abundance fitness is -0.196 ± 0.12. On the same count and under the same terms, the same measure for SSEFQMCGTHRETKKIFCEVDRSLLCLLCSSSQEHRYHRHRPIEWAA [E4F]: -0.59 ± 0.22; for SSEDQMCGTHRETKKIFCEVDRSLLCLLCSSSQEHRYHRHRPIEWAA [E4D]: -0.035 ± 0.16. The same measure, in the same setting: with SSEAQMCGTHRETKKIFCEVDRSLLCLLCSSSQEHRYHRHRPIEWAA [E4A] the figure was -0.224 ± 0.13; with SSEWQMCGTHRETKKIFCEVDRSLLCLLCSSSQEHRYHRHRPIEWAA [E4W], -0.577 ± 0.11; with SSEHQMCGTHRETKKIFCEVDRSLLCLLCSSSQEHRYHRHRPIEWAA [E4H], -0.351 ± 0.18.

Take SSEVQMCGTHRETKKIFCEVDRSLLCLLCSSSQEHRYHRHRPIEWAA [E4V]: the abundance fitness is -0.093 ± 0.097. Same read-out and setting: the same measure for SSEYQMCGTHRETKKIFCEVDRSLLCLLCSSSQEHRYHRHRPIEWAA [E4Y]: -0.35 ± 0.21.

For the variant SSEMQMCGTHRETKKIFCEVDRSLLCLLCSSSQEHRYHRHRPIEWAA [E4M], the abundance fitness was 0.015 ± 0.15.

Turning to SSEGQMCGTHRETKKIFCEVDRSLLCLLCSSSQEHRYHRHRPIEWAA [E4G], the abundance fitness is -0.68 ± 0.091. As for SSEKQMCGTHRETKKIFCEVDRSLLCLLCSSSQEHRYHRHRPIEWAA [E4K], the abundance fitness was -0.502 ± 0.19. The same measure, in the same setting: the same measure for SSESQMCGTHRETKKIFCEVDRSLLCLLCSSSQEHRYHRHRPIEWAA [E4S]: -0.244 ± 0.11; for SSELQMCGTHRETKKIFCEVDRSLLCLLCSSSQEHRYHRHRPIEWAA [E4L]: -0.278 ± 0.11. On the same count and under the same terms, the same measure for SSERQMCGTHRETKKIFCEVDRSLLCLLCSSSQEHRYHRHRPIEWAA [E4R]: -0.252 ± 0.081; for SSDEQMCGTHRETKKIFCEVDRSLLCLLCSSSQEHRYHRHRPIEWAA [E3D]: 0.084 ± 0.17; for SSHEQMCGTHRETKKIFCEVDRSLLCLLCSSSQEHRYHRHRPIEWAA [E3H]: -0.246 ± 0.26. For the variant SSWEQMCGTHRETKKIFCEVDRSLLCLLCSSSQEHRYHRHRPIEWAA [E3W], the abundance fitness is -0.156 ± 0.12. As for SSKEQMCGTHRETKKIFCEVDRSLLCLLCSSSQEHRYHRHRPIEWAA [E3K], the abundance fitness was -0.295 ± 0.22. As to SSVEQMCGTHRETKKIFCEVDRSLLCLLCSSSQEHRYHRHRPIEWAA [E3V], the abundance fitness is -0.292 ± 0.1.

SSSEQMCGTHRETKKIFCEVDRSLLCLLCSSSQEHRYHRHRPIEWAA [E3S]: the abundance fitness is -0.15 ± 0.098. The same measure, in the same setting: the same measure for SSAEQMCGTHRETKKIFCEVDRSLLCLLCSSSQEHRYHRHRPIEWAA [E3A]: 0.051 ± 0.1; for SSYEQMCGTHRETKKIFCEVDRSLLCLLCSSSQEHRYHRHRPIEWAA [E3Y]: -0.592 ± 0.25; for SSREQMCGTHRETKKIFCEVDRSLLCLLCSSSQEHRYHRHRPIEWAA [E3R]: -0.213 ± 0.081. Still for that read-out and setting: with SSFEQMCGTHRETKKIFCEVDRSLLCLLCSSSQEHRYHRHRPIEWAA [E3F] the figure was -0.346 ± 0.18; with SSTEQMCGTHRETKKIFCEVDRSLLCLLCSSSQEHRYHRHRPIEWAA [E3T], -0.487 ± 0.18. In the case of SSCEQMCGTHRETKKIFCEVDRSLLCLLCSSSQEHRYHRHRPIEWAA [E3C], the abundance fitness was determined as 0.068 ± 0.18. On the same count and under the same terms, with SSGEQMCGTHRETKKIFCEVDRSLLCLLCSSSQEHRYHRHRPIEWAA [E3G] the figure was -0.147 ± 0.091. Same read-out and setting: with SSLEQMCGTHRETKKIFCEVDRSLLCLLCSSSQEHRYHRHRPIEWAA [E3L] the figure was -0.176 ± 0.1; with SSMEQMCGTHRETKKIFCEVDRSLLCLLCSSSQEHRYHRHRPIEWAA [E3M], -0.275 ± 0.12. For the variant SSPEQMCGTHRETKKIFCEVDRSLLCLLCSSSQEHRYHRHRPIEWAA [E3P], the abundance fitness was -0.172 ± 0.14. The same measure, in the same setting: with SSIEQMCGTHRETKKIFCEVDRSLLCLLCSSSQEHRYHRHRPIEWAA [E3I] the figure was -0.492 ± 0.22; with SPEEQMCGTHRETKKIFCEVDRSLLCLLCSSSQEHRYHRHRPIEWAA [S2P], -0.042 ± 0.22.

Turning to SVEEQMCGTHRETKKIFCEVDRSLLCLLCSSSQEHRYHRHRPIEWAA [S2V], the abundance fitness was -0.29 ± 0.11. Same read-out and setting: the same measure for SREEQMCGTHRETKKIFCEVDRSLLCLLCSSSQEHRYHRHRPIEWAA [S2R]: -0.268 ± 0.096; for SDEEQMCGTHRETKKIFCEVDRSLLCLLCSSSQEHRYHRHRPIEWAA [S2D]: -0.354 ± 0.21. Still for that read-out and setting: with SFEEQMCGTHRETKKIFCEVDRSLLCLLCSSSQEHRYHRHRPIEWAA [S2F] the figure was 0.205 ± 0.14. Consider SEEEQMCGTHRETKKIFCEVDRSLLCLLCSSSQEHRYHRHRPIEWAA [S2E], for which the abundance fitness is -0.222 ± 0.14.

In the case of SKEEQMCGTHRETKKIFCEVDRSLLCLLCSSSQEHRYHRHRPIEWAA [S2K], the abundance fitness was -0.114 ± 0.14. Same read-out and setting: the same measure for SLEEQMCGTHRETKKIFCEVDRSLLCLLCSSSQEHRYHRHRPIEWAA [S2L]: -0.204 ± 0.12; for SYEEQMCGTHRETKKIFCEVDRSLLCLLCSSSQEHRYHRHRPIEWAA [S2Y]: -0.647 ± 0.3; for SAEEQMCGTHRETKKIFCEVDRSLLCLLCSSSQEHRYHRHRPIEWAA [S2A]: -0.21 ± 0.1. Take SIEEQMCGTHRETKKIFCEVDRSLLCLLCSSSQEHRYHRHRPIEWAA [S2I]: the abundance fitness was -0.017 ± 0.14.

Turning to SNEEQMCGTHRETKKIFCEVDRSLLCLLCSSSQEHRYHRHRPIEWAA [S2N], the abundance fitness is -0.538 ± 0.17.

Consider SSEECMCGTHRETKKIFCEVDRSLLCLLCSSSQEHRYHRHRPIEWAA [Q5C], for which the abundance fitness was -0.643 ± 0.21. Same read-out and setting: the same measure for SSEEAMCGTHRETKKIFCEVDRSLLCLLCSSSQEHRYHRHRPIEWAA [Q5A]: -0.358 ± 0.1; for SSEEDMCGTHRETKKIFCEVDRSLLCLLCSSSQEHRYHRHRPIEWAA [Q5D]: 0.159 ± 0.13.

Regarding SSEEHMCGTHRETKKIFCEVDRSLLCLLCSSSQEHRYHRHRPIEWAA [Q5H], the abundance fitness is -0.315 ± 0.18.

As to SSEEEMCGTHRETKKIFCEVDRSLLCLLCSSSQEHRYHRHRPIEWAA [Q5E], the abundance fitness was -0.609 ± 0.13. With SSEEGMCGTHRETKKIFCEVDRSLLCLLCSSSQEHRYHRHRPIEWAA [Q5G], the abundance fitness is -0.244 ± 0.081. On to SSEEFMCGTHRETKKIFCEVDRSLLCLLCSSSQEHRYHRHRPIEWAA [Q5F], for which the abundance fitness was -0.424 ± 0.12.

The variants in the next data set derive from B2. Described as above. The note with it: Homo sapiens.
With F3D, the abundance fitness was -0.418 ± 0.36. Same read-out and setting: the same measure for F3P: -0.141 ± 0.2. For the variant F3I, the abundance fitness is -0.17 ± 0.17. F3C: the abundance fitness is -0.193 ± 0.14. On the same count and under the same terms, the same measure for F3S: 0.06 ± 0.1; for P38K: -0.283 ± 0.26. On the same count and under the same terms, with P38A the figure was -0.042 ± 0.12.

For P38G, the abundance fitness is -0.454 ± 0.13. The same measure, in the same setting: with E42L the figure was -0.431 ± 0.11. Regarding E42P, the abundance fitness was -0.611 ± 0.17. As to E42I, the abundance fitness amounted to 0.009 ± 0.27. As for E42S, the abundance fitness is -0.273 ± 0.094.

Consider L21N, for which the abundance fitness is -0.366 ± 0.12. On the same count and under the same terms, with L21P the figure was -0.683 ± 0.098; with L21Q, -0.353 ± 0.19.

Regarding L21S, the abundance fitness is -0.605 ± 0.09. On the same count and under the same terms, with L21I the figure was -0.044 ± 0.12; with N30L, -0.238 ± 0.092; with N30E, -0.052 ± 0.12. Take D25Y: the abundance fitness is -0.44 ± 0.12.

In the case of D25I, the abundance fitness was -0.224 ± 0.1. With Y31K, the abundance fitness is -0.702 ± 0.14.

For Y31M, the abundance fitness was -0.074 ± 0.24. On to C50K, for which the abundance fitness was -1 ± 0.27.

Turning to C50F, the abundance fitness is -0.421 ± 0.23. The same measure, in the same setting: the same measure for C50Y: -0.761 ± 0.28; for C50W: -0.823 ± 0.22. The same measure, in the same setting: the same measure for S13W: -0.237 ± 0.17; for S13F: -0.2 ± 0.15. With S13L, the abundance fitness was found to be 0.044 ± 0.095. Same read-out and setting: the same measure for S13N: -0.212 ± 0.17. Same read-out and setting: with S13K the figure was -0.196 ± 0.26. Same read-out and setting: the same measure for S13P: -0.13 ± 0.14. As to G15L, the abundance fitness was -0.113 ± 0.064. Same read-out and setting: the same measure for G15P: 0.04 ± 0.074; for G15S: 0.155 ± 0.066. On the same count and under the same terms, with G15N the figure was -0.231 ± 0.099; with G26P, -0.799 ± 0.28; with G26H, 0.092 ± 0.17.

The values are drawn from the Human Domainome abundance scans (Beltran et al. 2025).
